In US6447996:

Target: human galanin receptor GalR1 (human) (UniProt P47211)
Assay: competition with 5x10^-11M [125I]galanin on membranes of Cos1 cells transfected with GalR1; Cheng-Prusoff

UniProt P47211, sequence (P47211 other isoform, or with tags, fused parts or gaps): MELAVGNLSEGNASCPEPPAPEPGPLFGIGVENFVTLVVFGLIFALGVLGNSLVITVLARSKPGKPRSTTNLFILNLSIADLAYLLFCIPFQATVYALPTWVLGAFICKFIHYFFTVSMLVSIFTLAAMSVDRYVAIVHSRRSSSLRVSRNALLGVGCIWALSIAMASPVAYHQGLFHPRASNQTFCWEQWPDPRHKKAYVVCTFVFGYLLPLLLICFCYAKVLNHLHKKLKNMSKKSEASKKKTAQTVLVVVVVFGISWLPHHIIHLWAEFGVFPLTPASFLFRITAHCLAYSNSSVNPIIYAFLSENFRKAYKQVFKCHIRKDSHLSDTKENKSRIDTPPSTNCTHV

- Ki: 115 nM
Substance: galanin 2-29 (peptide)
